# B1: Multivesicular body sorting factor 12 (Saccharomyces cerevisiae), P42939 (parent)
# chain: MNNNVEELLRRIPLYNKYGKDFPQETVTRFQMPEFKLPALQPTRDLLCPWYEECDNITKVCQLHDSSNKKFDQWYKEQYLSKKPPGIVGNTLLSPSRKDNS
# partner: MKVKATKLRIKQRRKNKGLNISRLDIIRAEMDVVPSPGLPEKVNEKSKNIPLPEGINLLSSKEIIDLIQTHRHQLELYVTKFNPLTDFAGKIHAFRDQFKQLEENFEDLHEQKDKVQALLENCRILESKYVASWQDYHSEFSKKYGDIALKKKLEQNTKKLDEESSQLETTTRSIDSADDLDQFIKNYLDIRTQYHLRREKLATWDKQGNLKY
# B2: Suppressor protein STP22 of temperature-sensitive alpha-factor receptor and arginine permease (Saccharomyces cerevisiae), P25604 (parent)
# chain: MSANGKISVPEAVVNWLFKVIQPIYNDGRTTFHDSLALLDNFHSLRPRTRVFTHSDGTPQLLLSIYGTISTGEDGSSPHSIPVIMWVPSMYPVKPPFISINLENFDMNTISSSLPIQEYIDSNGWIALPILHCWDPAAMNLIMVVQELMSLLHEPPQDQAPSLPPKPNTQLQQEQNTPPLPPKPKSPHLKPPLPPPPPPQPASNALDLMDMDNTDISPTNHHEMLQNLQTVVNELYREDVDYVADKILTRQTVMQESIARFHEIIAIDKNHLRAVEQAIEQTMHSLNAQIDVLTANRAKVQQFSSTSHVDDEDVNSIAVAKTDGLNQLYNLVAQDYALTDTIECLSRMLHRGTIPLDTFVKQGRELARQQFLVRWHIQRITSPLS
# partner: B1 partner
# B3: Multivesicular body sorting factor 12 (Saccharomyces cerevisiae), P42939 (parent)
# chain: B1 chain
# partner: B2 chain
# B4: Suppressor protein STP22 of temperature-sensitive alpha-factor receptor and arginine permease (Saccharomyces cerevisiae), P25604 (parent)
# chain: B2 chain
# partner: B1 chain
# Variants of: B1
# Conditions: with srn2_yeast SRN2, Q99176
row,effect of a mutation on the interaction,Variant
1,decreasing interaction,MNNNVEELLRRIPLYNKYGKDFPQETVTRFQMPEFKLPALQPTRDLDCPWYEECDNDTKVCQLHDSSNKKFDQWYKEQYLSKKPPGIVGNTLLSPSRKDNS

# Variants of: B2
# Conditions: with srn2_yeast SRN2, Q99176
row,effect of a mutation on the interaction,Variant
1,decreasing interaction,MSANGKISVPEAVVNWLFKVIQPIYNDGRTTFHDSLALLDNFHSLRPRTRVFTHSDGTPQLLLSIYGTISTGEDGSSPHSIPVIMWVPSMYPVKPPFISINLENFDMNTISSSLPIQEYIDSNGWIALPILHCWDPAAMNLIMVVQELMSLLHEPPQDQAPSLPPKPNTQLQQEQNTPPLPPKPKSPHLKPPLPPPPPPQPASNALDLMDMDNTDISPTNHHEMLQNLQTVVNELYREDVDYVADKILTRQTVDQESIARFHEIIAIDKNHLRAVEQAIEQTMHSLNAQIDVLTANRAKVQQFSSTSHVDDEDVNSIAVAKTDGLNQLYNLVAQDYALTDTIECLSRMLHRGTIPLDTFVKQGRELARQQFLVRWHIQRITSPLS [M254D]

# Variants of: B3
# Conditions: with stp22_yeast STP22, P25604
row,effect of a mutation on the interaction,Variant
1,decreasing interaction,MNNNVEELLRRIPLYNKYGKDFPQETVTRFQMPEFKLPALQPTRDLDCPWYEECDNDTKVCQLHDSSNKKFDQWYKEQYLSKKPPGIVGNTLLSPSRKDNS

# Variants of: B4
# Conditions: with mvb12_yeast MVB12, P42939
row,effect of a mutation on the interaction,Variant
1,decreasing interaction,MSANGKISVPEAVVNWLFKVIQPIYNDGRTTFHDSLALLDNFHSLRPRTRVFTHSDGTPQLLLSIYGTISTGEDGSSPHSIPVIMWVPSMYPVKPPFISINLENFDMNTISSSLPIQEYIDSNGWIALPILHCWDPAAMNLIMVVQELMSLLHEPPQDQAPSLPPKPNTQLQQEQNTPPLPPKPKSPHLKPPLPPPPPPQPASNALDLMDMDNTDISPTNHHEMLQNLQTVVNELYREDVDYVADKILTRQTVDQESIARFHEIIAIDKNHLRAVEQAIEQTMHSLNAQIDVLTANRAKVQQFSSTSHVDDEDVNSIAVAKTDGLNQLYNLVAQDYALTDTIECLSRMLHRGTIPLDTFVKQGRELARQQFLVRWHIQRITSPLS [M254D]

# From IntAct's records for PubMed 17442384
